These results are taken from patent US20030044858A1 (Genentech, published 2003).

Experiment [1] has as its target FCEH-bound IgE (human IgE held on FcεRI) (human, UniProt P01854 1-546; P12319 26-257). Put plainly: cell-based or functional assay.
The target of experiment [2] is T1, membrane IgE on U266 B1 cells (human, UniProt P01854 1-546).
T1 construct: whole, on cells; also called Membrane IgE on U266BL; mIgE
The experiment is described as follows: FACS on U266 B1 cells (membrane IgE+). Here is the method:
c. […] Cells are added to 400 μl FACS buffer containing propidium iodide at 2 μg/ml to stain dead cells.

Experiment [3] has as its target T2, human IgE (U266 IgE) (human, UniProt P01854 1-546).
T2 construct: mature; Purified from U266B1 cells or recombinant from 293 cells; the Scatchard assay used iodinated IgE of ND and PS allotypes; P01854 covers the constant region only; also called huIgE; U266 IgE standard
Put plainly: 50% inhibition of IgE binding to FCEH (assay taken as that of Table 9). Here is the method:
(§1) A 96-well assay plate (Manufn Nunc.) was coated with 0.05 ml of the FcεRI alpha chain IgG1 chimeric receptor in 1 μg/ml coating buffer ([…] carbonate/bicarbonate, pH 9.6). Assay was done for 12 hours at 4-8° C. The wells were aspirated and 250 μl blocking buffer (PBS—1% BSA pH 7.2) was added and incubated for one hour at 4° C. […] The FcεRI-coated wells were washed three times with PBS-0.05% Tween20, and then 50 μl from the sample wells were transferred and incubated with agitation for 30 minutes at 25° C. 50 μl/well of streptavidin-HRP diluted 1:5000 in assay buffer was incubated for 15 minutes with agitation and then the plate was washed as before. 50 μl/well of Microwell peroxidase substrate (Kirkgaard & Parry Laboratories) was added and color was developed for 30 minutes. The reaction was stopped by adding an equal volume of 1 normal HCl and the adsorbance measured at 450 nm.

Experiment [4] deals with T2, human IgE (U266 IgE). The experiment is described as follows: ratio of 50% inhibition concentrations. Here is the method:
as §1

T2 sequence (P01854 whole entry): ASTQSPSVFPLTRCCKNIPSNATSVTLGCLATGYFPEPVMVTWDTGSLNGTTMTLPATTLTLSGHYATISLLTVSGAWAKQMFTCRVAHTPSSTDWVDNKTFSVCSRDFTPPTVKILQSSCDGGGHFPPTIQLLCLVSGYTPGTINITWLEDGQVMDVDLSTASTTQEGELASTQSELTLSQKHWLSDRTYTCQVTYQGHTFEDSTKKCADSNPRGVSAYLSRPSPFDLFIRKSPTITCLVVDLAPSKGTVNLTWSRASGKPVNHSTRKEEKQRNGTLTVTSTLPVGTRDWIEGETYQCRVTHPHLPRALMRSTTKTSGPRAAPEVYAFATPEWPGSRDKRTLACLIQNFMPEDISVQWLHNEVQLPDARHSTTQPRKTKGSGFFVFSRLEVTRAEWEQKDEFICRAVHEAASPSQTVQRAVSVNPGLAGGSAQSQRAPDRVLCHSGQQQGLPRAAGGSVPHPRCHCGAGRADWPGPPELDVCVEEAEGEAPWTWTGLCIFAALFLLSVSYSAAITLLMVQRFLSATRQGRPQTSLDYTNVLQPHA
Sequence of FCEH-bound IgE (human IgE held on FcεRI) (P01854 whole entry, chain 1 of 2): as the sequence (P01854 whole entry) above
Sequence of FCEH-bound IgE (human IgE held on FcεRI) (P12319 26-257, chain 2 of 2): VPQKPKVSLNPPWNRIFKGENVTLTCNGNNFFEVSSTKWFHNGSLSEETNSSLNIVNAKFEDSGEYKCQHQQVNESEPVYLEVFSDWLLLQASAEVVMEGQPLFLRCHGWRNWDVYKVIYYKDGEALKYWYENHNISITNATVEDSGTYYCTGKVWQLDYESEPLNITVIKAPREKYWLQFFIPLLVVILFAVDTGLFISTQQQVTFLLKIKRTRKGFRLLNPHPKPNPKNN
T1 sequence (P01854 whole entry): as the sequence (P01854 whole entry) above

B1: MaE 13 murine anti-human IgE monoclonal antibody (antibody)
heavy: DVQLQESGPGLVKPSQSLSLTCTVTGYTITSDNAWNWIRQFPGNKLEWMGYINHSGTTSYNPSLKSRISITRDTSKNQFFLQLNSVTTEDTATYYCAWVVAYAMDYWGQGTSVTVSSAKTTPPSVYPLAR
light: DIVMTQSQKFMSTSVGDRVSVTCKASQNVSSNVAWYQQKPGQSPKALIYSASYRYSGVPDRFTGSGSGTDFTLTISNVQSEDLAEYFCQQYYTYPLYTFGGGTKLEIKRADAAPTVSIFPPSTR
notes: murine IgG1; may hold only the variable regions
As to B1, the “PBL Histamine Release (EC50)” value in experiment [1] was greater than 10 µg/mL. This molecule also registered an EC50 in experiment [2] of 1 µg/mL.

B2: MaE 11 murine anti-human IgE monoclonal antibody (antibody)
heavy: DVQLQESGPGLVKPSQSLSLACSVTGYSITSGYSWNWIRQFPGNKLEWMGSITYDGSSNYNPSLKNRISVTRDTSQNQFFLKLNSATAEDTATYYCARGSHYFGHWHFAVWGAGTTVTVSSAKTTPPSVYPLAR
light: DIVLTQSPASLAVSLGQRATISCKASQSVDYDGDSYMNWYQQKPGQPPILLIYAASYLGSEIPARFSGSGSGTDFTLNIHPVEEEDAATFYCQQSHEDPYTFGAGTKLEIK
notes: murine IgG1; they may hold only the variable regions
For the molecule B2, the “PBL Histamine Release (EC50)” value in experiment [1] was greater than 100 µg/mL. Moreover, the EC50 in experiment [2] was 0.15 µg/mL. For the same molecule, the IC50 in experiment [3] turned out to be 0.449 µg/mL. In experiment [4], the “Var. X / IgL1H1” value came out at 0.06 ratio and the “Var. X / MaE11” value is 1 ratio.

As a reminder, the EC50 is the concentration giving half of the maximal effect. Read a low EC50 as an effect from little substance. The term IC50 denotes the concentration that inhibits the measured activity by half. Low values mean greater potency in that assay, high ones weaker potency in that assay.
